Results taken from paper PMC7946963 (2021).
Changes are numbered by the printed parent chain. Square brackets hold non-standard residues; d marks the D form. Ends that are not written are not given here. pS = N[C@@H](COP(=O)(O)O)C(=O)O

T1: FIP200 Claw domain (residues 1490–1594) (human, UniProt Q8TDY2 1490-1594)
T1 chain: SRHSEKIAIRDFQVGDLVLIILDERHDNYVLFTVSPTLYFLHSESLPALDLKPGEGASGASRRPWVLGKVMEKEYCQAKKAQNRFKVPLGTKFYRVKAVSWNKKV

T2: LC3C (UniProt Q9BXW4 1-126)
T2 chain: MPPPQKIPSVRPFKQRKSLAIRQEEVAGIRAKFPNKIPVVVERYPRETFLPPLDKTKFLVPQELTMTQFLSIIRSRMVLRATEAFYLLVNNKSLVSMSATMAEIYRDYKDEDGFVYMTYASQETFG

T3: FIP200 Claw Y1564S (human)
T3 chain: T1 chain with Y75S

T4: FIP200 Claw K1569A (human)
T4 chain: T1 chain with K80A

T5: FIP200 Claw R1573E (human)
T5 chain: T1 chain with R84E

T6: FIP200 Claw F1574Q (human)
T6 chain: T1 chain with F85Q


Tests used:
Test in all cases: FP
[1] = biological target: T1, FIP200 Claw domain (residues 1490–1594)
LC3B = LC3B (UniProt Q9GZQ8 1-120)
1 = 1 (UniProt Q9H0R8 1-117)
1, sequence (Q9H0R8 whole entry): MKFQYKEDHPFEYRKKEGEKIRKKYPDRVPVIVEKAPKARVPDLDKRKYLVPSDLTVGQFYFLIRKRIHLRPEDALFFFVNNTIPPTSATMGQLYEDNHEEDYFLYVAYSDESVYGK

LC3A = LC3A (UniProt Q9H492 1-121)
GABARAPL2 = GABARAPL2 (UniProt P60520 1-117)
GABARAPL2, sequence (P60520 whole entry): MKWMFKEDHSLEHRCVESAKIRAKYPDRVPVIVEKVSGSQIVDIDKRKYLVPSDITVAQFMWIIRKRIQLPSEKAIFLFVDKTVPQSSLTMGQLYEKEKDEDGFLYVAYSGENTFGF

LC3C = biological target: T2, LC3C
FIP200 Claw Y1564S = biological target: T3, FIP200 Claw Y1564S
FIP200 Claw K1569A = biological target: T4, FIP200 Claw K1569A
FIP200 Claw R1573E = biological target: T5, FIP200 Claw R1573E
FIP200 Claw F1574Q = biological target: T6, FIP200 Claw F1574Q

Binder	Kd [1] [µM]	Kd (LC3B) [µM]	Kd 1 [µM]	Kd (LC3A) [µM]	Kd (GABARAPL2) [µM]	Kd (LC3C) [µM]	Kd (FIP200 Claw Y1564S) [µM]	Kd (FIP200 Claw K1569A) [µM]	Kd (FIP200 Claw R1573E) [µM]	Kd (FIP200 Claw F1574Q) [µM]
TASDD[pS]DIVTLEPPK (also: N-terminal FITC in fluorescence polarisation assay only) [phospho-CCPG1 FIR2 synthetic peptide (p-CCPG1 FIR2)]	0.72	20.6	15.3	15.3	34.5	11	–	–	–	–
TASDDSDIVTLEPPK (also: N-terminal FITC only in fluorescence polarisation assay form) [CCPG1 FIR2 synthetic peptide (residues 99–113)]	12.3	40.7	37.3	37.3	123	39.8	–	–	–	–
TASDDSDIVTLEPPK (domain or fragment) [CCPG1 FIR2 (residues 99–113), recombinant]	–	–	–	–	–	–	79.5	105	138	120
